Measurements as given in patent publication US20140271651A1 (AbbVie / Abbott, published 2014).

Key:
bovine serum albumin [1] = target: T1, bovine serum albumin (bovine, UniProt P02769 25-607); assay: EIA, supernatant 1:25 captured on sheep anti-mouse IgG Fc, BSA in place of antigen
T1 construct: also called BSA
Procedure: (§1) Cell supernatant samples were analyzed for anti-GP73 antibodies by EIA. Sheep anti-mouse IgG Fc (Jackson Immunoresearch) was coated on 96 well micro-titer EIA plates at 1 μg/mL. After the capture reagent was coated on the solid phase, it was removed and the plates were blocked using a BSA/PBS block solution. The wells were washed with distilled water and cell supernatants were added to the blocked plates and allowed to incubate at room temperature for at least one hour. A mouse monoclonal antibody 14H4-23 (Drexel University) was used a positive control. The anti-mouse IgG Fc captured the anti-GP73 mouse antibody from the supernatant. Following the incubation, the supernatants were washed off using distilled water. An irrelevant mouse-human chimeric antibody was added to all wells and incubated at room temperature for 30 min to block any captured mouse antibodies that react with the human IgG Fc fusion protein linked to the GP73 antigen. The wells were washed with distilled water and GP73-hFc was added to the plates at 200 ng/mL and incubated for 30 min. Following this incubation, the antigen was washed from the plates using distilled water. Biotin labeled goat anti-GP73 was added to the plates at 200 ng/mL and incubated for 30 min at room temperature. The plates were washed and streptavidin-HRPO (Jackson Immunoresearch) (diluted to approximately 200 ng/mL) was added to the plates and allowed to incubate for 30 min. The plates were washed with distilled water and OPD substrate was used as the chromagen to generate signal. Plates were read at 492 nm and the results were analyzed.
Positive clones were expanded to 24 well plates in IMDM supplemented with 10% FBS and HT supplement. Following 5-14 days growth, the 24 well cultures were evaluated by EIA in the same manner as previously described, except the supernatant samples were titrated against GP73-hFc and BSA to eliminate non-specific protein binders. Once again the clones generating signal at least 3 times greater than background were considered positive and selected for further evaluation.

bovine serum albumin [2] = target: T1, bovine serum albumin; assay: sandwich EIA, rabbit anti-GP73 coated 1 ug/mL, BSA background, supernatant 1:125, HRP goat anti-mouse IgG Fc
Procedure: as §1
(§2) The 24 well cultures were then evaluated by EIA for their ability to form a sandwich with the rabbit anti-GP73 used as a capture reagent coated directly on the solid phase. The same EIA protocol previously described was used, except rabbit anti-GP73 antibody was coated at 1 μg/mL, the GP73-hFc was tested at 200 ng/mL, and a HRP labeled goat anti-mouse IgG FC antibody was used as the conjugate reagent to generate signal.

[3] = target: T2, E. coli expressed human GP73 (amino acids 63 to 400) with C-terminal 6xHis tag (human, UniProt Q8NBJ4 64-401); assay: Western blot on E. coli expressed GP73 antigen
T2 construct: No human Fc, not glycosylated; also called GP73 produced in E. coli; E. coli GP73
T2 sequence: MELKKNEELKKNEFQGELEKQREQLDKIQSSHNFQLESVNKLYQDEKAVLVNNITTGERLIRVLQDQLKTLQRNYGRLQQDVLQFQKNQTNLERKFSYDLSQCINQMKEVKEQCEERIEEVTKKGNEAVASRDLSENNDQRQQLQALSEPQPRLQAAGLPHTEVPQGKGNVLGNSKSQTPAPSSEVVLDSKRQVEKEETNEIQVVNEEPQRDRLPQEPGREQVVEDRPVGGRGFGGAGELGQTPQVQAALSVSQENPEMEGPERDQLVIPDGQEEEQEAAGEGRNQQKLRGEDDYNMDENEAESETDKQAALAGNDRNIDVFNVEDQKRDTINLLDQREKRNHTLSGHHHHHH
Procedure: The mammalian cell (HEK and CHO) expressed GP73-hFc or E. coli expressed GP73, as described above, were electrophoresed in a 4-20% SDS-PAGE gel. […] The nitrocellulose membrane was blocked with PBS buffer containing 5% non-fat dry milk and 0.05% Tween 20 for about 1 hr. The nitrocellulose membrane was incubated with an appropriate amount of anti-GP73 monoclonal antibody in 10 mL of 2.5% non-fat dry milk and 0.05% Tween 20 PBS buffer, pH 7.2. The nitrocellulose membranes were washed with 0.05% Tween 20/PBS, pH 7.2, incubated with goat anti-mouse IgG antibody conjugated with HRP for 1 hr at room temperature, and washed with 0.05% Tween 20/PBS buffer. Antibody bound to the GP73 protein was visualized by the addition of freshly prepared metal enhanced 3,3′-Diaminobenzidine in stable peroxide buffer (Pierce, Ill.).

[4] = target: T3, GP73-hFc (human GP73 amino acids 63 to 400 fused at the C-terminus to human IgG1 Fc) (human); assay: SPR Biacore 2000, mAb captured on rabbit anti-mouse IgG, HEK GP73-hFc analyte 0.412-100 nM, 1:1 fit
T3 construct: Expressed in HEK293F, CHO or HepG2 cells; the host is named under assay; also called HEK expressed GP73-hFc; CHO expressed GP73-hFc
T3 chain: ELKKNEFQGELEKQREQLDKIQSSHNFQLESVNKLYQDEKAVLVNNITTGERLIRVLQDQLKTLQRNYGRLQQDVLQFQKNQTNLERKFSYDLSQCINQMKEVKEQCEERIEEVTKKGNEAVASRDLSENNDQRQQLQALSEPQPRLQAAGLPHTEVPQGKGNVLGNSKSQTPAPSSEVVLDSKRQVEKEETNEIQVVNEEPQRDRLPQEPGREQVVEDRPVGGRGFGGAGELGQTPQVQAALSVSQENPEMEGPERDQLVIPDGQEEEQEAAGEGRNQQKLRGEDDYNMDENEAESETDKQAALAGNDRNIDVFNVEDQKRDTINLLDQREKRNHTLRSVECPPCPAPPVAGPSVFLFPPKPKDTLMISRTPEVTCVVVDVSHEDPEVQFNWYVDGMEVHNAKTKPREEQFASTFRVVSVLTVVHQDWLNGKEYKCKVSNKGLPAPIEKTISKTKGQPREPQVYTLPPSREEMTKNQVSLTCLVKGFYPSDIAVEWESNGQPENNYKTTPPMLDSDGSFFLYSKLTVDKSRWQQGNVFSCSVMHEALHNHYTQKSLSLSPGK
Procedure: First, an approximately 13,000-15,000 RU rabbit anti-mouse IgG Capture Biosensor was created by amine-coupling rabbit anti-mouse IgG antibody (GE Healthcare) to a CM5 biosensor chip (GE Healthcare) via EDC/NHS/ethanolamine chemistry provided in an Amine Coupling Kit (GE Healthcare) after pre-treating the biosensor with duplicate injections of 100 mM HCl, 50 mM NaOH, and 0.1% SDS. Purified GP73 antibody and antigen (HEK GP73-hFc) were diluted into a running buffer (hereinafter “running buffer”) composed of HBS-EP buffer (GE Healthcare) supplemented with 0.1% BSA and 0.1% CM-Dextran. Each GP73 antibody was diluted to 1 μg/mL. The GP73-hFc antigen was diluted to concentrations of 0.412 to 100 nM using a 3-fold dilution series assuming an oligomeric molecular weight of 490 kDa (Abbott Laboratories).
The GP73-hFc antigen program was as follows. After equilibrating the rabbit anti-mouse IgG Capture Biosensor for 3 min at 5 μL/minute with running buffer, GP73 antibody (7-14 μL) was injected over individual flow cells with one flow cell being left blank as a reference flow cell. The flow cells were washed with running buffer for 3 min at a flow rate of 60 μL/min. 150 μL of HEK293 expressed GP73-hFc antigen at a random concentration was injected across the biosensor. The biosensor was subsequently re-equilibrated with running buffer for 5 min at a flow rate of 60 μL/minute. All biosensor surfaces were regenerated with one 30 μL injection of 10 mM glycine, pH 1.7 (GE Healthcare), at a flow rate of 10 μL/minute. All concentrations of HEK293 expressed antigen were tested in duplicate. The binding kinetics (association and dissociation) were monitored via sensorgrams during antigen injection and running buffer re-equilibration. The sensorgrams were double-referenced and fit to a 1:1 binding model using Scrubber 2.0 software (BioLogic Software Pty Ltd., Australia) to determine association and dissociation rates, as well as overall KD. Standard errors of determined values are reported in parentheses with respect to the smallest number place value.

[5] = target: T3, GP73-hFc (human GP73 amino acids 63 to …); assay: sandwich EIA, rabbit anti-GP73 coated 1 ug/mL, GP73-hFc 200 ng/mL, supernatant 1:125, HRP goat anti-mouse IgG Fc
Procedure: as §1, §2

[6] = target: T3, GP73-hFc (human GP73 amino acids 63 to …); assay: EIA, supernatant mAb captured on sheep anti-mouse IgG Fc, GP73-hFc 200 ng/mL, biotin goat anti-GP73/streptavidin-HRPO; background 0.06
Procedure: as §1

T1 sequence (P02769 25-607 limits assumed): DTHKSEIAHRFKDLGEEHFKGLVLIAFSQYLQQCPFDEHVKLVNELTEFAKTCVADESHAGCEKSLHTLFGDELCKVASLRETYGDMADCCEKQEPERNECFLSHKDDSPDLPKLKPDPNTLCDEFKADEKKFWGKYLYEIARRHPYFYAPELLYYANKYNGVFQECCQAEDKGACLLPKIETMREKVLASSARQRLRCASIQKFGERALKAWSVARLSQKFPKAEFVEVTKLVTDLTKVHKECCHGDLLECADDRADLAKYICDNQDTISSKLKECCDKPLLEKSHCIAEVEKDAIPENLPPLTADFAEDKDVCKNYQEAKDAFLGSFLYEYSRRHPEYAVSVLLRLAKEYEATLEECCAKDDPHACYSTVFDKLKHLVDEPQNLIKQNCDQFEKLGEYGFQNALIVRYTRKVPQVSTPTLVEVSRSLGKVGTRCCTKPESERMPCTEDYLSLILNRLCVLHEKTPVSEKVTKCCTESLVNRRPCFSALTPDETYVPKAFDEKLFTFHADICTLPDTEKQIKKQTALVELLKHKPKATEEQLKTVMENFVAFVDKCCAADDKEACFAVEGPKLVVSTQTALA

Row | Binder | BSA Background OD (A492) (bovine serum albumin [1]) | BSA Background OD (A492) (bovine serum albumin [2]) | binding result [3] | Kd [4] | koff [4] | kon [4] | GP73-hFc OD (A492) [5] | OD (A492) [6]
1 | anti-GP73 monoclonal antibody 1A-3187 (antibody, V domains shown, Biotin labelled in some assays) VH: QGQLQQSGAELMKPGASVKISCKATGYTIRSYWIEWVKQRPGHGLEWIGEILPGSGNTNYNEKFKGTATFTADTSSNTVYLHLSSLTSEDSAVYYCANGRGSYRYHWFAYWGQGTLVTVSP VL: DIVLTQSPASLAVSLGQRATISCKASQSVDYDGDSYMNWYQQKPGQPPKVLIYAASNLESGIPARFSGSGSGTDFTLNIHPVEEEDAATYYCQQSNEDPYTFGGGTKLEMKR | 0.11 OD (A492) | 0.09 OD (A492) | – | – | – | – | – | –
2 | anti-GP73 monoclonal antibody 1A-4246 (antibody, V domains shown, Biotin labelled in some assays; also called mAb 1A-4246; 1A-4246-Bt) VH: EVMLVESGGGLVKPGGSLKLSCAASGFTFSSYAMSWVRLTPEKRLEWVATISSGSSYTYYPDSVKGRFTISRDNVKSTLYLQMSSLRSEDTAMYYCARNWDGELHYYAMDYWGQGTSVTVSS VL: QIVLTQSPAIMSASLGERVTMTCTASSSVSSSYLHWYQQKPGSSPKLWVYSTSSLASGVPARFSGSGSGTSYSLTINNMEAEDAATYFCHQYHRSPYTFGGGTKLEIKR | 0.04 OD (A492) | – | – | – | – | – | – | –
3 | anti-GP73 monoclonal antibody 1B-3246 (antibody, V domains shown, Biotin labelled in some assays; also called mAb 1B-3246; 1B-3246-Bt) VH: DVKLVESGGGLVKPGGSLKLSCAASGFTFSSYTMSWVRQTPEKRLEWVATISRGGTYIYYPDSVKGRFTISRDNAKNTLYLQMSSLKSEDTAIYYCTREYFSGDTYDYFDYWGQGTTLTVSS VL: EIVMTQAAFANPVTLGTSVSISCRSSKSLLHSNGITYLYWYLQKPGQSPQLLIYQMSNLASGVPDRFSSSGSGTDFTLRISRVEAEDVGIYYCAQNLELYTFGGGTKLEIKR | – | 0.1 OD (A492) | binds | 0.079 nM | 0.00025 s⁻¹ | 3.18e+06 M⁻¹ s⁻¹ | 0.79 OD (A492) | 1.48 OD (A492)
